B1: AVA04-251 XT14 (designed binder)
chain: MIPRGLSEAKPATPEIQEIVDKVKPQLEEKTNETYGKLEAVQYKTQVLAREGRQDWVLSTNYYIKVRAGDNKYMHLKVFNGPWVPFPHQQLADRVLTGYQVDKNKDDELTGFAEAAAKEAAAKEAAAKEAAAKEAAAKEAAAKMIPRGLSEAKPATPEIQEIVDKVKPQLEEKTNETYGKLEAVQYKTQVLAREGRQDWVLSTNYYIKVRAGDNKYMHLKVFNGPWVPFPHQQLADRVLTGYQVDKNKDDELTGFAEAAAKEAAAKEAAAKEAAAKEAAAKEAAAKMIPRGLSEAKPATPEIQEIVDKVKPQLEEKTNETYGKLEAVQYKTQVLANFFQRRWPGSTNYYIKVRAGDNKYMHLKVFNGPWKFRNTDRGADRVLTGYQVDKNKDDELTGFHHHHHH
B2: AVA04-251 XT15 (designed binder)
chain: MIPRGLSEAKPATPEIQEIVDKVKPQLEEKTNETYGKLEAVQYKTQVLAREGRQDWVLSTNYYIKVRAGDNKYMHLKVFNGPWVPFPHQQLADRVLTGYQVDKNKDDELTGFAEAAAKEAAAKEAAAKEAAAKEAAAKEAAAKMIPRGLSEAKPATPEIQEIVDKVKPQLEEKTNETYGKLEAVQYKTQVLANFFQRRWPGSTNYYIKVRAGDNKYMHLKVFNGPWKFRNTDRGADRVLTGYQVDKNKDDELTGFAEAAAKEAAAKEAAAKEAAAKEAAAKEAAAKMIPRGLSEAKPATPEIQEIVDKVKPQLEEKTNETYGKLEAVQYKTQVLAREGRQDWVLSTNYYIKVRAGDNKYMHLKVFNGPWVPFPHQQLADRVLTGYQVDKNKDDELTGFHHHHHH
B3: HSA-41 (designed binder)
chain: MIPRGLSEAKPATPEIQEIVDKVKPQLEEKTNETYGKLEAVQYKTQVLANFFQRRWPGSTNYYIKVRAGDNKYMHLKVFNGPWKFRNTDRGADRVLTGYQVDKNKDDELTGFHHHHHH
notes: Made in E. coli; also called AVA-41; AFFIMER® XT “AVA-41”
B4: HSA-18 (designed binder)
chain: MIPRGLSEAKPATPEIQEIVDKVKPQLEEKTNETYGKLEAVQYKTQVLADWWQAKWPHSTNYYIKVRAGDNKYMHLKVFNGPYKVHQSSGGADRVLTGYQVDKNKDDELTGFHHHHHH
notes: also called HSA-18 monomer
B5: AVA04-251 XT60 (designed binder)
chain: MIPRGLSEAKPATPEIQEIVDKVKPQLEEKTNETYGKLEAVQYKTQVLAREGRQDWVLSTNYYIKVRAGDNKYMHLKVFNGPWVPFPHQQLADRVLTGYQVDKNKDDELTGFAEAAAKEAAAKEAAAKEAAAKEAAAKEAAAKMIPRGLSEAKPATPEIQEIVDKVKPQLEEKTNETYGKLEAVQYKTQVLAREGRQDWVLSTNYYIKVRAGDNKYMHLKVFNGPWVPFPHQQLADRVLTGYQVDKNKDDELTGFAEAAAKEAAAKEAAAKEAAAKEAAAKEAAAKMIPRGLSEAKPATPEIQEIVDKVKPQLEEKTNETYGKLEAVQYKTQVLADWWQAKWPHSTNYYIKVRAGDNKYMHLKVFNGPYKVHQSSGGADRVLTGYQVDKNKDDELTGFHHHHHH
notes: Made in E. coli and purified on NiNTA
B6: AVA04-251 XT61 (designed binder)
chain: MIPRGLSEAKPATPEIQEIVDKVKPQLEEKTNETYGKLEAVQYKTQVLAREGRQDWVLSTNYYIKVRAGDNKYMHLKVFNGPWVPFPHQQLADRVLTGYQVDKNKDDELTGFAEAAAKEAAAKEAAAKEAAAKEAAAKEAAAKMIPRGLSEAKPATPEIQEIVDKVKPQLEEKTNETYGKLEAVQYKTQVLADWWQAKWPHSTNYYIKVRAGDNKYMHLKVFNGPYKVHQSSGGADRVLTGYQVDKNKDDELTGFAEAAAKEAAAKEAAAKEAAAKEAAAKEAAAKMIPRGLSEAKPATPEIQEIVDKVKPQLEEKTNETYGKLEAVQYKTQVLAREGRQDWVLSTNYYIKVRAGDNKYMHLKVFNGPWVPFPHQQLADRVLTGYQVDKNKDDELTGFHHHHHH
notes: as for B5
B7: AVA04-261 (designed binder)
chain: MIPRGLSEAKPATPEIQEIVDKVKPQLEEKTNETYGKLEAVQYKTQVLAHAYGPRDWDSTNYYIKVRAGDNKYMHLKVFNGPPADHVLEEAADRVLTGYQVDKNKDDELTGFHHHHHH
B8: AVA04-236 (designed binder)
chain: MIPRGLSEAKPATPEIQEIVDKVKPQLEEKTNETYGKLEAVQYKTQVLAKEHGPDSWWSTNYYIKVRAGDNKYMHLKVFNGPQEKNQWVEEADRVLTGYQVDKNKDDELTGFHHHHHH
B9: AVA04-269 (designed binder)
chain: MIPRGLSEAKPATPEIQEIVDKVKPQLEEKTNETYGKLEAVQYKTQVLAKEYGPEEWWSTNYYIKVRAGDNKYMHLKVFNGPGDYEQVLIHADRVLTGYQVDKNKDDELTGFHHHHHH

Assays:
[1] = target: PD-L1 (PD-1/PD-L1 blockade Bioassay, Promega) (UniProt Q9NZQ7 19-290, limits assumed); experiment: cell-based or functional assay
[2] = target: T1, mouse serum albumin (MSA) (mouse, UniProt P07724 25-608); experiment: binding ELISA on coated MSA, pH 7.4 by the legend (the panel's title prints pH 7)
[3] = target: T2, human serum albumin (HSA) (human, UniProt P02768 25-609); experiment: SPR (Biacore) kinetic analysis, pH 6.0 and pH 7.4 running buffer; the pH for each end is not stated; lower end of the range; pH 6.0 or pH 7.4 not told
T2 construct: mature; also called HuSA; HSA (Sigma)

[4] = target: T1, mouse serum albumin (MSA); experiment: SPR (Biacore) kinetic analysis, MSA, pH 6.0; reference HSA-18 monomer
[5] = target: T3, human PD-L1-Fc (R&D Systems) (human, UniProt Q9NZQ7 19-239); experiment: SPR (Biacore T200), PD-L1-Fc amine-coupled to CM5 chip, AFFIMER as analyte, 1:1 Langmuir fit
T3 construct: Bought from R&D Systems; also called rhPD-L1-Fc; human PD-L1 Fc chimeric protein; not shown: the Fc part of the bought chimera is not described
Protocol: To analyze PD-L1-Fc binding kinetics, a Biacore T200 kinetic analysis was performed using running buffer HBS-EP+ and series S sensor CM5 (GE Healthcare) chip Fc2 immobilized with PD-L1-Fc (R&D Systems) in 10 mM sodium acetate pH 4.0 using amine coupling reagents (GE Healthcare). The concentration titration of ILF AFFIMER® proteins was run as analyte at a flow rate of 30 μl/min. […] with 3 mM NaOH (GE healthcare) for 20 seconds at 20 μl/min flow rate. The Fc2-1 data blank was subtracted and fit to a 1:1 Langmuir binding model (Biacore evaluation software; GE) to calculate an apparent KD value.

T3 sequence (Q9NZQ7 19-239): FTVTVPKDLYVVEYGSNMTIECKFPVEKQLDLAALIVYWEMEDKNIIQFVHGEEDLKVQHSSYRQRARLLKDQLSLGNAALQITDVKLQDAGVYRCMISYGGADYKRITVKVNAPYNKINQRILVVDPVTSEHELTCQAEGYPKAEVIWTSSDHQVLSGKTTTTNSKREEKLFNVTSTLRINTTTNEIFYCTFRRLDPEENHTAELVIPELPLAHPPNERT
Sequence of PD-L1 (PD-1/PD-L1 blockade Bioassay, Promega) (Q9NZQ7 19-290 limits assumed): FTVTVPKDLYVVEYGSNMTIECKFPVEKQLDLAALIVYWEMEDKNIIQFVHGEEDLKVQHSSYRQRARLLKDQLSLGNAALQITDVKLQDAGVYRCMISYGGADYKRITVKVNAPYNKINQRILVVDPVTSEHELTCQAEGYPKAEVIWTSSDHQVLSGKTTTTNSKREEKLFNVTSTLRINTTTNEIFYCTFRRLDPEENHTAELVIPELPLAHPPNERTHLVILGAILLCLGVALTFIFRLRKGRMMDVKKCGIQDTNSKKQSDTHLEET
T2 sequence (P02768 25-609): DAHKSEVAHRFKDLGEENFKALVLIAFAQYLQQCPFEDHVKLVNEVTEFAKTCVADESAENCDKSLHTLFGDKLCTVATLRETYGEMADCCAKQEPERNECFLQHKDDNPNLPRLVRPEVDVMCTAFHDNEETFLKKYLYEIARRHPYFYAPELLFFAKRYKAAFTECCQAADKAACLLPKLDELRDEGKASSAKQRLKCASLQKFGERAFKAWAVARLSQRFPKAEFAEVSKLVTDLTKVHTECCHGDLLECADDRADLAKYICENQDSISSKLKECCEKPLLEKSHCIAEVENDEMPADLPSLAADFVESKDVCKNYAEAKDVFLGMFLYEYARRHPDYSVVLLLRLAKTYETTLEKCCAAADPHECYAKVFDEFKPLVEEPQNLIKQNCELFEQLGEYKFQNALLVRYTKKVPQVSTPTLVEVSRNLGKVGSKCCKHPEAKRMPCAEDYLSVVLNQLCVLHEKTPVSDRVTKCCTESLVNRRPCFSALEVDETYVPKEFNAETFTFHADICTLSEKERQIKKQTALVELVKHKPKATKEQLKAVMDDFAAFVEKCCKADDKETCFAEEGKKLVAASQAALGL

Binder | Kd [5] | koff [5] | kon [5] | also measured
B1 | – | – | – | half-maximal concentration in the PD-1/PD-L1 blockade Bioassay (Promega), fold change relative to assay buffer; the table's head prints IC50 (nM), the text calls it EC50 [1]: 176 nM
B2 | – | – | – | half-maximal concentration in the PD-1/PD-L1 blockade Bioassay (Promega), fold change relative to assay buffer; the table's head prints IC50 (nM), the text calls it EC50 [1]: 434 nM
B3 | – | – | – | EC50 (read off the curve) [2]: ~5 nM
B4 | – | – | – | Kd [3]: 109 to 152 nM
B5 | – | – | – | fold of the monomer serum albumin binding AFFIMER affinity [4]: ≤ 2 fold
B6 | – | – | – | fold of the monomer serum albumin binding AFFIMER affinity [4]: ≤ 2 fold
B7 | 2.95 nM | 0.0109 s⁻¹ | 3.68e+06 M⁻¹ s⁻¹ | –
B8 | 5.43 nM | 0.00977 s⁻¹ | 1.8e+06 M⁻¹ s⁻¹ | –
B9 | 1.68 nM | 0.00345 s⁻¹ | 2.05e+06 M⁻¹ s⁻¹ | –

From US20230272081A1 (AVACTA LIFE SCIENCES, published 2023)
